Bridge positions count the residues as written; N and C are the ends. Side chains are listed from the residue outwards. Ends that are not written are not given here. * marks the point of attachment. C20 diacid = O=C(O)CCCCCCCCCCCCCCCCCCC(=O)*; AEEA = NCCOCCOCC(=O)O
How the values were obtained:
rat calcitonin receptor [1] = molecular target: T1, rat calcitonin receptor (rat, UniProt P32214 25-516); experiment: ratio IC50 rat calcitonin receptor / IC50 rat amylin receptor (reference)
T1 construct: whole, on cells; Membranes of transiently transfected BHK tk'ts 13 cells (Assay VIII); also called rCTR
T1 sequence (looked up): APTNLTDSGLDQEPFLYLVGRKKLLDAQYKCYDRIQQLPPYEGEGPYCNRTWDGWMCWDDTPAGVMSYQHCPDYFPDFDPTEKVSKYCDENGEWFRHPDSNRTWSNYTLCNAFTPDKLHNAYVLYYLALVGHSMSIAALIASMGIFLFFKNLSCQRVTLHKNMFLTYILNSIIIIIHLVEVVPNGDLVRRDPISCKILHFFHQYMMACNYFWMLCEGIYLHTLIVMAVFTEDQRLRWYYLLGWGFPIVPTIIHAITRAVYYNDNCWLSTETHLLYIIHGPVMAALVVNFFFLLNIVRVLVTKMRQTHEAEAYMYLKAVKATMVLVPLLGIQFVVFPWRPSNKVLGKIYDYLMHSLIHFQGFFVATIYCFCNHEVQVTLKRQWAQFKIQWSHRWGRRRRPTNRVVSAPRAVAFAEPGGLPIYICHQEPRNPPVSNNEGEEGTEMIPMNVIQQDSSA

[2] = molecular target: T2, human calcitonin receptor (human, UniProt P30988 25-474); experiment: ratio IC50 human calcitonin receptor / IC50 human amylin receptor (reference)
T2 construct: whole, on cells; Membranes of a stably transfected BHK cell line (Assay VII); also called hCTR; hCT
T2 sequence (looked up): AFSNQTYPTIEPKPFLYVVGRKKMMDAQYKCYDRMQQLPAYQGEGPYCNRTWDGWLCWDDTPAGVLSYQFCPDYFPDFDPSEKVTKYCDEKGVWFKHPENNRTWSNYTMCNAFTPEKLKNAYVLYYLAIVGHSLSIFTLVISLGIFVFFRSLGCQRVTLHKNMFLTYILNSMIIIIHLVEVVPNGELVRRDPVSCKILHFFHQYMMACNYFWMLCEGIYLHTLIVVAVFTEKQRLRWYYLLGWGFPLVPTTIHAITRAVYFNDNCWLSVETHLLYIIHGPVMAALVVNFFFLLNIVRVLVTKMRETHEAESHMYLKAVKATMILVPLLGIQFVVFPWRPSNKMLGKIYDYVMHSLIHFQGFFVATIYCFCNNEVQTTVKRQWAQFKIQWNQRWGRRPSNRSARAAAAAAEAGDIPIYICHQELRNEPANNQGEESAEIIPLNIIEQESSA
Procedure: The resulting pellet was resuspended, homogenized and centrifuged (20.000 rpm, 15 min) in a buffer containing 20 mM Na-HEPES and 0.1 mM EDTA (pH 7.4, buffer 2). The resulting pellet was resuspended in buffer 2 and protein concentration was measured (BCA protein Assay, Pierce). The homogenate was kept cold during the whole procedure. The membranes were kept at −80° C. until use. The assay was performed in a 384 well Optiplate (PerkinElmer) in a total volume of 40 ul. Membranes were mixed with SPA beads. Final concentration of membranes 35 ng/μL final and SPA beads was 0.05 mg/well. Test-compounds were dissolved in DMSO and further diluted in assay buffer (50 mM Hepes, pH 7.4, 1 mM CaCl2, 5 mM MgCl₂, 0.1% OA and 0.02% Tween20). […] The final mixture was incubated with shaking at 400 rpm for 120 min at 25° C. prior to centrifugation (1500 rpm, 10 min). Samples were analyzed on TopCounter™ (Packard). The IC₅₀ was calculated using (one site binding competition analysis) GraphPad Prism5 as a measure of receptor affinity.
Membranes were prepared in the following way; the cells were rinsed with PBS and incubated with Versene for approximately 5 min before harvesting. The cells were flushed with PBS and the cell-suspension was centrifuged for 5 min at 1000 rpm. Cells were homogenized (Ultrathurrax) in a buffer containing 20 mM Na-HEPES and 10 mM EDTA (pH 7.4) and centrifuged at 20.000 rpm for 15 min. The resulting pellet was resuspended, homogenized and centrifuged (20.000 rpm, 15 min) in a buffer containing 20 mM Na-HEPES and 0.1 mM EDTA (pH 7.4, buffer 2). The resulting pellet was resuspended in buffer 2 and protein concentration was measured (BCA protein Assay, Pierce). The homogenate was kept cold during the whole procedure. The membranes were kept at −80° C. until use. Assay was performed in a 384 well Optiplate (PerkinElmer) in a total volume of 40 ul. Membranes were mixed with SPA beads.

rat calcitonin receptor [3] = molecular target: T1, rat calcitonin receptor; experiment: SPA competition with 125I-calcitonin, membranes of BHK cells with rat calcitonin receptor (Assay VIII)
[4] = molecular target: T3, rat amylin receptor (rat calcitonin receptor + rat RAMP 3) (rat, UniProt P32214 25-516; Q9JJ73 23-147); experiment: SPA competition with 125I-rat amylin, membranes of BHK cells with rat calcitonin receptor + rat RAMP3 (Assay VI)
T3 construct: whole, on cells; Membranes of transiently transfected BHK tk'ts 13 cells (Assay VI); also called rAmylin-R; rat amylin 3(a) receptor
T3 sequence (looked up) 1: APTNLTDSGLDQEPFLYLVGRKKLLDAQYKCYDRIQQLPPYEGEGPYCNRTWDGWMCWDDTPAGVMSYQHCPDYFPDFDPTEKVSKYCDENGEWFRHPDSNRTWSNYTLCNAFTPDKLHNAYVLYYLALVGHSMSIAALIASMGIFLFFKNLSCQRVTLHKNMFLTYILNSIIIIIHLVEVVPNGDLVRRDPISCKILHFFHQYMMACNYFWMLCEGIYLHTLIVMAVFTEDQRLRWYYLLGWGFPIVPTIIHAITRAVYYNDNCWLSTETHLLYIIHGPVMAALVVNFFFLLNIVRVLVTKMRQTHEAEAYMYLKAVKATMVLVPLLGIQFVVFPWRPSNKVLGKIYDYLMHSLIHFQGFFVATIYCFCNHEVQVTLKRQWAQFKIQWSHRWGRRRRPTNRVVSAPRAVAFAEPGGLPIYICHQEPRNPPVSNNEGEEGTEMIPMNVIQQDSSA
T3 sequence (looked up) 2: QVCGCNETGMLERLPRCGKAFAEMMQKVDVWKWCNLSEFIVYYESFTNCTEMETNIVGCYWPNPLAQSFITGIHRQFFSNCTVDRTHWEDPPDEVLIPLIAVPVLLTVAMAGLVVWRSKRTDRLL

- Ratio rCT/rAmylin binding (rat calcitonin receptor [1]): 76.3
- Ratio hCT/hAmylin binding [2]: 101
- IC50 (rat calcitonin receptor [3]): 0.0295 µM
- IC50 [4]: 0.000386 µM
B1: N^ε1-[2-[2-[2-(19-carboxynonadecanoylamino)ethoxy]ethoxy]acetyl]-[Arg17,Pro21,Pro27,His34]-h-amylin (peptide)
peptide: K([AEEA-C20 diacid])CNTATCATQRLANFLRHSSPNFGAIPSSTNVGHNTY-NH2
modifications: disulfide 2-7; N-terminus assumed
SMILES: CC[C@H](C)[C@H](NC(=O)[C@H](C)NC(=O)CNC(=O)[C@H](Cc1ccccc1)NC(=O)[C@H](CC(N)=O)NC(=O)[C@@H]1CCCN1C(=O)[C@H](CO)NC(=O)[C@H](CO)NC(=O)[C@H](Cc1c[nH]cn1)NC(=O)[C@H](CCCNC(=N)N)NC(=O)[C@H](CC(C)C)NC(=O)[C@H](Cc1ccccc1)NC(=O)[C@H](CC(N)=O)NC(=O)[C@H](C)NC(=O)[C@H](CC(C)C)NC(=O)[C@H](CCCNC(=N)N)NC(=O)[C@H](CCC(N)=O)NC(=O)[C@@H](NC(=O)[C@H](C)NC(=O)[C@@H]1CSSC[C@H](NC(=O)[C@@H](N)CCCCNC(=O)COCCOCCNC(=O)CCCCCCCCCCCCCCCCCCC(=O)O)C(=O)N[C@@H](CC(N)=O)C(=O)N[C@@H]([C@@H](C)O)C(=O)N[C@@H](C)C(=O)N[C@@H]([C@@H](C)O)C(=O)N1)[C@@H](C)O)C(=O)N1CCC[C@H]1C(=O)N[C@@H](CO)C(=O)N[C@@H](CO)C(=O)N[C@H](C(=O)N[C@@H](CC(N)=O)C(=O)N[C@H](C(=O)NCC(=O)N[C@@H](Cc1c[nH]cn1)C(=O)N[C@@H](CC(N)=O)C(=O)N[C@H](C(=O)N[C@@H](Cc1ccc(O)cc1)C(N)=O)[C@@H](C)O)C(C)C)[C@@H](C)O
notes: also called compound 91

Reference: patent US20140087995A1 (published 2014)
